Data: the RNAGym collection of RNA variant scans (doi:10.7554/elife.80360)

B1: HDV Ribozyme (parent)
chain: GGCCGGCAUGGUCCCAGCCUCCUCGCUGGCGCCGGCUGGGCAACAUUCCGAGGGGACCGUCCCCUCGGUAAUGGCGAAUGGGACCCA

Variants of: B1
Assay: self-cleavage, relative activity (ratio to wild type); higher = more cleavage; co-transcriptional

| Variant | self-cleavage |
| --- | --- |
| GGCCGGCAUGGUCCCAGCCUCCUCGCUGGCGCCGGCUGGGCAACAUUACGAGGGGACCGUCCCCUCGGUGAUGGCGAAUGGGACCCA [C48A A70G] | 1.11 |
| GGCCGGCAUGGUCCCAGCCUCCUCGCUGGCGCCGGCUGGGCAACUUACCGAGGGGACCGUCCCCUCGGUAAUGGCGAAUGGGACCCA [A45U U47A] | 0.973 |
| GGCCGGCAUGGUCCCAGCCUCCUCGCUGGCGCCGGCUGGGCAACAUUCCAAGGGGACCGUCCCCUCGGUGAUGGCGAAUGGGACCCA [G50A A70G] | 0.763 |
| CGCCGGCAUGGUCCGAGCCUCCUCGCUGGCGCCGGCUGGGCAACAUUCCGAGGGGACCGUCCCCUCGGUAAUGGCGAAUGGGACCCA [G1C C15G] | 0.166 |
| GGCCGGCAUGGUCCCAGCCUCCUCGCUGGCGCCUGCUGGGCAACAUUCCGAGGGGACCGUCCCCUCGGUAAUGGCGAAUGGCACCCA [G34U G82C] | 0.138 |
| GGCCGGCAUGGUCCCAGCCUCCUCGCUGGCGCCGGCUGGGCAACAUUCCGAGGGGACCGUCCCCUCGGUAAUUGCGAAUGGGACCCA [G73U] | 0.382 |
| GGCCGGCAUGGUCCCAGCCUACUCGCUGGCGCCGCCUGGGCAACAUUCCGAGGGGACCGUCCCCUCGGUAAUGGCGAAUGGGACCCA [C21A G35C] | 0.177 |
| GGCCGGCAUGGUCCCAGCCUCCUAGCUGGCGCCGGCUGGGCAACAUUCCGAGGGGACCGUCCCCUCGGUAAUCGCGAAUGGGACCCA [C24A G73C] | 0.211 |
| GGCCGGCAUGGUCCCAGCCUCCUCGCUGGCGCCGCCUGGGCAACAUUCCGAGGGGACCGUCCCCUCGGUAAUGGCGAAUGCGACCCA [G35C G81C] | 0.19 |
| GGCCGGCAUGGUCCCAGCCUCCUCUCUGGCGCCGGCUGUGCAACAUUCCGAGGGGACCGUCCCCUCGGUAAUGGCGAAUGGGACCCA [G25U G39U] | 0.0302 |
| GGCCGGCAUGGUCCCAGCCUCCUCGCUGGAGCCGGCUGGGCAAAAUUCCGAGGGGACCGUCCCCUCGGUAAUGGCGAAUGGGACCCA [C30A C44A] | 0.208 |
| GGCCGGCAUGGUCAGAGCCUCCUCGCUGGCGCCGGCUGGGCAACAUUCCGAGGGGACCGUCCCCUCGGUAAUGGCGAAUGGGACCCA [C14A C15G] | 0.138 |
| GGCCGGCAUGGUCCCAGCCUCCUCGCUGGCGCCGUCUGGGCAACAUUCCGAGGGGACCGUCCCCUCGGUAAUGGCGAAUAGGACCCA [G35U G80A] | 0.101 |
| GGCCGGCAUGGUCCCAGCCUCCUCGCUGGCGCCGGCUGGGCAACAUUCCGAGGGGACCUUCCCCUCGGUAGUGGCGAAUGGGACCCA [G59U A71G] | 1.13 |
| GGCCGGCAUGGUCCCAGCCUCCUCGCUGGCGCCGGCUGGGCAACAUUACGAGGGGACCGUCCCAUCGGUAAUGGCGAAUGGGACCCA [C48A C64A] | 0.867 |
| GGCCGGCAUGGUCCCAGCCUCCUCGCUGGGGCCGGCUGGGCAACAUUUCGAGGGGACCGUCCCCUCGGUAAUGGCGAAUGGGACCCA [C30G C48U] | 0.241 |
| GGCCGGCAUGGUCUCAGCCUCCUCGCUGGCUCCGGCUGGGCAACAUUCCGAGGGGACCGUCCCCUCGGUAAUGGCGAAUGGGACCCA [C14U G31U] | 0.429 |
| GGCCGUCAUGGUCCCAGCCUCCUCGCUGGCGCCGGCUGGGCAACAUUCCGAGGGGACCGUCCCAUCGGUAAUGGCGAAUGGGACCCA [G6U C64A] | 0.415 |
| GGCCGGCAUGGUCCCAGCCUCCUGGCUGGCGCCGGCUGGGCAACAUUCCGAGGGGACCGUUCCCUCGGUAAUGGCGAAUGGGACCCA [C24G C61U] | 0.166 |
| GGCCGUCAUGGUCCCAGCCUCCUCGCUGGCGCCGGCUGGGCAACAUUCCGAGGGGACCGUCCCCUCGGUAAUGGCGAAUGGGAGCCA [G6U C84G] | 0.0923 |
| GGCCGGCAUGGUCCCAGCCUCCUCGCUGGCGCCGGCUGGGCAACAUUCCGAGGGGACCGUCCCCUCGGUAGUGGCGAAUGGGAUCCA [A71G C84U] | 0.831 |
| GGCCAGCAUGGUCCCAGCCUCCUCGCUGGCGCCGGCUGGGCAACAUUCCGAGGGGACCGUCCCGUCGGUAAUGGCGAAUGGGACCCA [G5A C64G] | 0.237 |

| Variant | self-cleavage |
| --- | --- |
| GGCCGGCAUGGUCCCAGCCUCCUCGCUGGCGCCGGCUGGCCAACAUUCCGAGGGGACCGUCCCCUCAGUAAUGGCGAAUGGGACCCA [G40C G67A] | 0.23 |
| GGCCGGCAUGGUCCCAGCCUCCUCGCUGGCGCCGGCUGGGCAUCAUUCCGAGGGGACCGUCCCCUCGGUAAUGGCGAAUCGGACCCA [A43U G80C] | 0.115 |
| GGCCGGCAUGGUCCCAGCCUCCUCGCUGGCGCCGGCUUGGCAACAUUCAGAGGGGACCGUCCCCUCGGUAAUGGCGAAUGGGACCCA [G38U C49A] | 0.264 |
| GGCCGGCAUGGUCCCAGCCUCCUCUCUGGCGCCGGCUGGGCAACAUUCCGAGGGGACCGUCCCCUCGGUAAUGGCGAAUGCGACCCA [G25U G81C] | 0.0923 |
| GGCCGGCAUGGUCCCAGCCUCCUCGCCGGCGCCGGCUGGGCAACAUUCCGAGGGGACCGUCUCCUCGGUAAUGGCGAAUGGGACCCA [U27C C62U] | 0.851 |
| GGCCGGCAUGGUCCCAGCCUCCUCGCUGGCGCCGGCUGAGAAACAUUCCGAGGGGACCGUCCCCUCGGUAAUGGCGAAUGGGACCCA [G39A C41A] | 0.471 |
| GGCCGGCAUGGUCCCAGCCUGCUCGCUGGCGCCGGCUGGGCAACAUUCCGAGGGGACCGUCCCCUCGGUAAUGGCGGAUGGGACCCA [C21G A77G] | 0.0386 |
| GGCCGGCAUGGUCCCAGCCUCCUCGCUCGCGCCGGCUGGGCAACAUUUCGAGGGGACCGUCCCCUCGGUAAUGGCGAAUGGGACCCA [G28C C48U] | 0.0978 |
| GGCCGGCGUGGUCCCAGCCUCCUCGCUGGCGCCGGCUGAGCAACAUUCCGAGGGGACCGUCCCCUCGGUAAUGGCGAAUGGGACCCA [A8G G39A] | 0.302 |
| GGCCGGCCUGGUCCCAGCCUACUCGCUGGCGCCGGCUGGGCAACAUUCCGAGGGGACCGUCCCCUCGGUAAUGGCGAAUGGGACCCA [A8C C21A] | 0.0449 |
| GGCCGGCAUGGUCCCAGCCUCCUCGCUGGCGCCGCCUGGGCAACAUUCCGAGGGGACCGUCCCCUCGGUAAUGGCGAGUGGGACCCA [G35C A78G] | 0.262 |
| GGCCGGCAUGGUCCCAGCCUGCUCGCUGGCGCCGGCUGGGCAACAUUCCGAGGGGACCGUCCCCCCGGUAAUGGCGAAUGGGACCCA [C21G U65C] | 0.113 |
| GGCCGGCAUGGUCCCAGCCUCCUCGCUGGCGCCGGCUGGGCAACAUUCCGCGGGGACCGUCCCCUCGGUAAUGGCGAAUGGGUCCCA [A51C A83U] | 0.609 |
| GGCCGGCAUGGUCCCAGCCUCCUCGCCGGCGCCGGCUGGGUAACAUUCCGAGGGGACCGUCCCCUCGGUAAUGGCGAAUGGGACCCA [U27C C41U] | 0.604 |
| GGCCGGCAUGGUCCCAGCCUCCUCGCUGGCGGCGGCUGGGCAACAUUCCGAGGGGACCGUCCCCUCGGUAAUGACGAAUGGGACCCA [C32G G74A] | 0.126 |
| GGCCGGCAUGGUCCCAGCCUCCUCGCUGGCGCCGGCUGGGCAACAUUCCGAGGGGACCGUCCCCUCGGUAAUGGCGUAUGGAACCCA [A77U G82A] | 0.271 |
| GGCCGGCAUGGUCCCAGCCUCCUCGCUGGCGCCGGCUGGGCAACAUUCCGAGGGGACCGUCCUCUCGGUAAUGGCGAAUGGGACACA [C63U C85A] | 0.958 |
| GGCCGGCAUGGUCCCAGCCUACUCGCUGGCGCCGGCUUGGCAACAUUCCGAGGGGACCGUCCCCUCGGUAAUGGCGAAUGGGACCCA [C21A G38U] | 0.0665 |
| GACCGGCAUGGUCCCAGCCUCCUCGCUGGCGCCGGCUGGGCAACAUUCCGAUGGGACCGUCCCCUCGGUAAUGGCGAAUGGGACCCA [G2A G52U] | 0.201 |
| GGCCGGCAUGGUCCCAGCGUCCUCGCUGGCGCCGGCUGGGCAACAUUCCGAGGGGACCGUCCCCGCGGUAAUGGCGAAUGGGACCCA [C19G U65G] | 0.111 |
| GGCCGGCAUGGUCCCAACCUCCUCGCUGGCGCCGGCUGGGCAACAUUCCGAGAGGACCGUCCCCUCGGUAAUGGCGAAUGGGACCCA [G17A G53A] | 1.02 |
| GGCCGGCAUGGUCCCAGCCUCCUCGCUGGCGACGGCUGGGCAUCAUUCCGAGGGGACCGUCCCCUCGGUAAUGGCGAAUGGGACCCA [C32A A43U] | 0.108 |

| Variant | self-cleavage |
| --- | --- |
| GGCCGGCAUGGUCCCAGCCUCCUCGCUGGCGCCGGCUGGGCAAAAUUCCGAGGGGACCGUCCCCUCGGUAAUGGCGAACGGGACCCA [C44A U79C] | 0.122 |
| GGCCGGCAUGGUCCCAGCCUCCUCGCUGCCGCCGGCUGGGCAACAUUCCGAGGGGACCGUCCCCUCGGUGAUGGCGAAUGGGACCCA [G29C A70G] | 0.101 |
| GGCCGGCAUGGUCCCAGCCUCCUCGCUGGCGCCGGCUGGGCAACAUUCCGAGGGGACCGGCCCCUCGGUAAUGGGGAAUGGGACCCA [U60G C75G] | 0.119 |
| GGCCGGCAUGGUCCCAGCCUCCUCGCUGUCGCCGGCUGGGCCACAUUCCGAGGGGACCGUCCCCUCGGUAAUGGCGAAUGGGACCCA [G29U A42C] | 0.125 |
| GGCCGGCAUGGUCCCAGCCUCCUCGCUGGCGCCGGCUGGGCAACAUUCCGAGGGGACCGUCCCCUCGGUAAUGCCGAAUGGGACACA [G74C C85A] | 0.217 |
| GGCCGGCAUGGUCCCAGCCUCCUCGCUGGCGCCGGCUGGGCAACAUUCCUGGGGGACCGUCCCCUCGGUAAUGGCGAAUGGGACCCA [G50U A51G] | 0.956 |
| GGCCGGCAUGGUCCCAGCCUCCUCGCUGGCGCCGGCUGGGCAACAUUCCGAGGGGACCGUCCCCUCGGUUAUGGCGAAUGGGACCCA [A70U] | 0.953 |
| CGGCGGCAUGGUCCCAGCCUCCUCGCUGGCGCCGGCUGGGCAACAUUCCGAGGGGACCGUCCCCUCGGUAAUGGCGAAUGGGACCCA [G1C C3G] | 0.443 |
| GGCCGGCAUGGUCCCAGCCUCCUCGCUGGCGCGGGCUGGGCAACAUUCCGAGGGGACCGUCCCCUCGGUAAUGGCGAAUGGGAUCCA [C33G C84U] | 0.0386 |
| GGCCGGCAUGGUCCCAGCCUCCUCGCUGGCGCCGGCUGGGCAACUUGCCGAGGGGACCGUCCCCUCGGUAAUGGCGAAUGGGACCCA [A45U U47G] | 0.867 |
| GGCCGGCAUGUUCCCAGCCUCUUCGCUGGCGCCGGCUGGGCAACAUUCCGAGGGGACCGUCCCCUCGGUAAUGGCGAAUGGGACCCA [G11U C22U] | 0.103 |
| GGCCAGCAUGGUCCCAGCCUCCUCGCUGGCGCCGGCUGGGCAACAUUCCGAGGGGACCGUCCCCUGGGUAAUGGCGAAUGGGACCCA [G5A C66G] | 0.244 |
| GGCCGGCAUGGUCCCAGCCUCCUCGCUGGCGCCGGCUGGGCAACAAUCCGGGGGGACCGUCCCCUCGGUAAUGGCGAAUGGGACCCA [U46A A51G] | 0.739 |
| GGGCGGCAUGGUCCCAGCCUCCGCGCUGGCGCCGGCUGGGCAACAUUCCGAGGGGACCGUCCCCUCGGUAAUGGCGAAUGGGACCCA [C3G U23G] | 0.0791 |
| GGCCGGCAUGGUCCCAGCCUCCUCGCUGGCGCCGGCUGGGCAACAUUCCGACGGGACCGUCCCCUCGGUAAUGGCGCAUGGGACCCA [G52C A77C] | 0.403 |
| GGCCGGCAUGGUCCCUGCCUCCUCGCUGGCGCCGGCUGGGCAACAUUCCGAGGGGACCGUCCCCUCGGUAAUGGCGAAUGCGACCCA [A16U G81C] | 0.342 |
| GGCCGGCAUGGACCCAGCCUCCUCGCUGGCGCCGGCUGGGCAAGAUUCCGAGGGGACCGUCCCCUCGGUAAUGGCGAAUGGGACCCA [U12A C44G] | 0.166 |
| GUCCGGCAUGGUCCCAGCCUCCUCGCUGGCGCCGGCUGGGCAACAUUCCGAGGGGACCGUCCCCUCGGUAAUCGCGAAUGGGACCCA [G2U G73C] | 0 |
| GUCCGGCAUGGUCCCAGCCUCCUCGCUGGCGCCGGCUGGGCAACAUUCCUAGGGGACCGUCCCCUCGGUAAUGGCGAAUGGGACCCA [G2U G50U] | 0 |
| GGCCGGCAUGCUCCCAGCCUCCUCGCUGGCGCCGGCUGGGCAACAUUCCGAGGGGACCGUCCCCUCGGUAAUGGGGAAUGGGACCCA [G11C C75G] | 0.133 |
